This is an account of results in PMC10194908 (2023).

The chains are these.
B1: D8 (antibody, V domains shown)
VH: QVQLQESGPGLVKPSETLPLTCTVSGGSISNNGFYWGWIRQPPGKGLEWIGNIYYRGSTYYNPSLNSRVTISVDTSKNQFSLQLNSVTAADTAVYYCARLGIQLWFAIDYWGQGTLVTVSS
VL: SVLTQPPAVSVALGQTVRITCQGDSLRSSYASWYQQKPGQAPVLIFYAKNNRPSGIPDRFSGSSSGNTASLTITGAQAEDEADYYCYSRDSSGNLWVFGGGTKLTVL
B2: A2 (antibody, V domains shown)
VH: QVQLQESGGGVVQPGRSLRLFCAASGFTFSAFSTYAIHWVRQAPGKGLEWVAVISYDANNKYYADSVKGRFTISRDNFKSTLFLQMNSLRAEDTAVYYCARDRSDSGYDSYYYYYGMDVWGQGTTVTVSS
VL: QSVVTQPPSVSAAPGQKVTISCSGSSSNIGRNYVSWYQHLPGTAPKLLIYDNNKRRSGIPDRFSGSKSDTTATLGITGLQTVDEADYYCGSWDNSLSAYVFGTGTKVTV
B3: D6 (antibody, V domains shown)
VH: EVQLVQSGGGLVQPGRSLRLSCAASGFTFQDYAMHWVRQAPGKGLEWVSGIGRDSGTIDYADSVKGRFTISRDNAKNSLYLQMNSLRAEDTALYYCAKISNGYRPDNWGQGTLVTVSS
VL: VLTQPPSVSVSPGQTARITCSGDVLAKRYARWFQQKPGQAPVVVIYKDSERPSGIPERLSGSSSGTTVTLTISGAQVEDEADYYCYCAADNNVVFGGGTKLTVL
B4: Recombinant NS1 from DENV-1-Nauru/Western Pacific/1974 (natural protein)
chain: DSGCVINWKGRELKCGSGIFVTNEVHTWTEQYKFQADSPKRLSAAIGKAWEEGVCGIRSATRLENIMWKQISNELNHILLENDMKFTVVVGDVSGILAQGKKMIRPQPMEHKYSWKSWGKAKIIGADVQNTTFIIDGPNTPECPDNQRAWNIWEVEDYGFGIFTTNIWLKLRDSYTQVCDHRLMSAAIKDSKAVHADMGYWIESEKNETWKLARASFIEVKTCIWPKSHTLWSNGVLESEMIIPKIYGGPISQHNYRPGYFTQTAGPWHLGKLELDFDLCEGTTVVVDEHCGNRGPSLRTTTVTGKTIHEWCCRSCTLPPLRFKGEDGCWYGMEIRPVKEKEENLVKSMVSA

Holding throughout (assay): BLI
For orientation: Biolayer interferometry detects binding as a change in optical thickness at a sensor tip.

Experiment [1] concerns the target T1, Recombinant NS1 from DENV-4-Dominica/814669/1981 (dengue virus serotype 4 …, UniProt P09866 775-1126).
T1 chain: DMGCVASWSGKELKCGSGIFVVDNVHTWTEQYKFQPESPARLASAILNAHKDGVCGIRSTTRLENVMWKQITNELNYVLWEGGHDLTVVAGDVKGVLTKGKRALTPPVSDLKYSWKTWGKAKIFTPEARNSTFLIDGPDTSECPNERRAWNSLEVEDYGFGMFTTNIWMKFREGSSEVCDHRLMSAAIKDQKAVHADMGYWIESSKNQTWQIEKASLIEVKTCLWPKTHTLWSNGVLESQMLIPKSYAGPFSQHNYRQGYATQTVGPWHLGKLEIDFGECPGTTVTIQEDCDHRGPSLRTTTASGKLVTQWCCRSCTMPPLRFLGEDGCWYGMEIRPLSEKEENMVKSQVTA

Experiment [2] deals with B4.
The target in experiment [3] is T2, Recombinant NS1 from DENV-2-Thailand/16681/84 (dengue virus serotype 2 …, UniProt P29990 776-1127).
T2 sequence (P29990 776-1127): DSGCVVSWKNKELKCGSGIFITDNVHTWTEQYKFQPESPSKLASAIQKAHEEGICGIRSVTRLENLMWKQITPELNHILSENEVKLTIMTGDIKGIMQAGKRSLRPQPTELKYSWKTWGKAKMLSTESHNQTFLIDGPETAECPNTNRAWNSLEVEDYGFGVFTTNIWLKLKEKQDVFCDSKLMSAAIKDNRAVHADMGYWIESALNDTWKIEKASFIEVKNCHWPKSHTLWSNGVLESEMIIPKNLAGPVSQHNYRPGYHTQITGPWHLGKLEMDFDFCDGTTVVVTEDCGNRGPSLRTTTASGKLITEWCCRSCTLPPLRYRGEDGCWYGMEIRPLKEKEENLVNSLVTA
In experiment [4] the target is T3, Recombinant NS1 from DENV-3-Sri Lanka D3/H/IMTSSA-SRI/2000/1266 (dengue virus serotype 3 (Sri Lanka …, UniProt Q6YMS4 774-1125)).
T3 chain: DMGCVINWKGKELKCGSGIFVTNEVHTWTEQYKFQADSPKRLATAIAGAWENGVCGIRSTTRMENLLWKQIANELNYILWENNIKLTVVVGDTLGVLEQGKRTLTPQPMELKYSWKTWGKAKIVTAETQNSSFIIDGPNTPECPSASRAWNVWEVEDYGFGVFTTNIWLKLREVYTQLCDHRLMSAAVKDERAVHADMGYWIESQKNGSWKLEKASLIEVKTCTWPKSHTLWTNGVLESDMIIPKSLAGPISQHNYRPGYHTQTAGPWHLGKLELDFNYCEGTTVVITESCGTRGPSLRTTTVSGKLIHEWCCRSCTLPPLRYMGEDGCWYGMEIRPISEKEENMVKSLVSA

Experiment [5] has as its target T1, Recombinant NS1 from ….
The target of experiment [6] is B4.
The target in experiment [7] is T2, Recombinant NS1 from …. The source holds these as a separate data set.
Experiment [8] addresses T3, Recombinant NS1 from DENV-3-Sri Lanka ….
The target in a further experiment is Den3.

What is called koff is a measure of how fast the partners let go of each other. What is called Kd is the free concentration of one partner at which half of the binding sites on the other are occupied at equilibrium, for simple one-to-one binding.

As for B1, the off-rate constant (koff) in experiment [1] is less than 1e-07 s⁻¹; in [2], 9.79e-05 s⁻¹; in [3] it was less than 1e-07 s⁻¹; in experiment [4], 6.68e-05 s⁻¹. Moreover, the Kd in [5] is less than 0.001 nM; in experiment [6], 1.06 nM; in experiment [7] it was less than 0.001 nM; in [8], 0.569 nM.

B2: the off-rate constant (koff) in experiment [1] is 0.0016 s⁻¹; in experiment [2] it was 0.000221 s⁻¹; in [3] it was less than 1e-07 s⁻¹; in experiment [4] it was less than 1e-07 s⁻¹. For the same molecule, the Kd in [5] is 4.41 nM; in [6] it was 1.61 nM; in [7], less than 0.001 nM; in experiment [8], less than 0.001 nM.

Turning to B3, the koff was 5.9e-05 s⁻¹ in [1], 0.000344 s⁻¹ in [2] and less than 1e-07 s⁻¹ in [3]. Further, the results for the Kd in [5], in experiment [6] and in experiment [7] were 0.17 nM, 2.67 nM and less than 0.001 nM, respectively.

Consider B4, for which, in the experiment with Den3, the Kd is less than 0.001 nM and the koff was less than 1e-07 s⁻¹.
